Substitutions are numbered along the chain they refer to. Names and notes keep the numbering of the source. Like-named read-outs stand apart in the source and are kept apart here.
T1: ALK2 receptor-human-IgG1-Fc fusion protein (human), Q04771
T1 chain: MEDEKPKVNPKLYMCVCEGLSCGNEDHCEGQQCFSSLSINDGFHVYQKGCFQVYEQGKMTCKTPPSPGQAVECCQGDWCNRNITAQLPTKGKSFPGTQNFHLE

T2: designer BMPE (N-linked glycan at N56 (CHO-produced))
T2 chain: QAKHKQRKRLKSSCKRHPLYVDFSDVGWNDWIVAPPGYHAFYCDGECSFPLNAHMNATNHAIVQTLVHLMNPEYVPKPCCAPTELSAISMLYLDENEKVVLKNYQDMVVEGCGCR

T3: wild type BMP6 homodimer (Homo sapiens (Human), UniProt P22004 375-513, N-linked glycan at N80 (CHO-produced))
T3 construct: Produced in CHO cells; also called WT BMP6; BMP6/6
T3 sequence: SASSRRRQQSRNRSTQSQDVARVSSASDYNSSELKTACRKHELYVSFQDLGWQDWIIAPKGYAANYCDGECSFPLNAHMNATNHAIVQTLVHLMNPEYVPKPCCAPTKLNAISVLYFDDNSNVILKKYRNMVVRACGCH

B1: wild type BMP2/6 heterodimer, P12643 283-396; P22004 375-513 (ligand)
chain 1: QAKHKQRKRLKSSCKRHPLYVDFSDVGWNDWIVAPPGYHAFYCHGECPFPLADHLNSTNHAIVQTLVNSVNSKIPKACCVPTELSAISMLYLDENEKVVLKNYQDMVVEGCGCR
chain 2: T3 sequence
B2: Noggin (other, UniProt Q13253 28-232, looked up)
chain: QHYLHIRPAPSDNLPLVDLIEHPDPIFDPKEKDLNETLLRSLLGGHYDPGFMATSPPEDRPGGGGGAAGGAEDLAELDQLLRQRPSGAMPSEIKGLEFSEGLAQGKKQRLSKKLRRKLQMWLWSQTFCPVLYAWNDLGSRFWPRYVKVGSCFSKRSCSVPEGMVCKPSKSVHLTVLRWRCQRRGGQRCGWIPIQYPIISECKCSC
B3: wild type BMP2 homodimer (ligand)
chain: B1 chain 1
modifications: N-linked glycan at N56 (CHO-produced)
notes: also called BMP2WT; WT BMP2
B4: ALK6 receptor-human-IgG1-Fc fusion protein (Fc fusion, UniProt O00238 14-126, looked up)
chain: KKEDGESTAPTPRPKVLRCKCHHHCPEDSVNNICSTDGYCFTMIEEDDSGLPVVTSGCLGLEGSDFQCRDTPIPHQRRSIECCTERNECNKDLHPTLPPLKNRDFVDGPIHHR
notes: extracellular domain; See note of m11; also called BMPRIb; not shown: human IgG1 Fc
B5: designer BMPG (ligand)
chain: B1 chain 1 with V33I, P36K, H39A, S85N, M89V, L92F, E94D, E96S, K97N, V99I
notes: Produced in CHO cells; dimer as the other BMPs
B6: ActRIIB receptor-human-IgG1-Fc fusion protein (Fc fusion, UniProt Q13705 19-137, looked up)
chain: SGRGEAETRECIYYNANWELERTNQSGLERCEGEQDKRLHCYASWRNSSGTIELVKKGCWLDDFNCYDRQECVATEENPQVYFCCCEGNFCNERFTHLPEAGGPEVTYEPPPTAPTLLT
notes: extracellular domain; See note of m11; also called ATRIIB; not shown: human IgG1 Fc
B7: BMPRII receptor-human-IgG1-Fc fusion protein (Fc fusion, UniProt Q13873 27-150, looked up)
chain: SQNQERLCAFKDPYQQDLGIGESRISHENGTILCSKGSTCYGLWEKSKGDINLVKQGCWSHIGDPQECHYEECVVTTTPPSIQNGTYRFCCCSTDLCNVNFTENFPPPDTTPLSPPHSFNRDET
notes: extracellular domain; See note of m11; also called BMPR IIA; BMPRIIA; not shown: human IgG1 Fc
B8: ALK2 receptor-human-IgG1-Fc fusion protein (Fc fusion, UniProt Q04771 21-123, looked up)
chain: T1 chain
notes: extracellular domain; also called ActRIa; ActRI; not shown: human IgG1 Fc
B9: designer BMP-GER (ligand)
chain: T2 chain with V33I, P36R, H39A, S86N, M90V, L93F, E95D, E97S, K98N, V100I
notes: also called BMPGE P36R
B10: ALK3 receptor-human-IgG1-Fc fusion protein (Fc fusion, UniProt P36894 24-152, looked up)
chain: QNLDSMLHGTGMKSDSDQKKSENGVTLAPEDTLPFLKCYCSGHCPDDAINNTCITNGHCFAIIEEDDQGETTLASGCMKYEGSDFQCKDSPKAQLRRTIECCRTNLCNQYLQPTLPPVVIGPFFDGSIR
notes: extracellular domain; See note of m11; also called BMPRIa; not shown: human IgG1 Fc
B11: designer BMP-E-NR (ligand)
chain: QAKHKQRKRLKSSCKRHPLYVDFSDVGWNDWIVAPPGYHAFYCDGECSFPLNAHMNATNHAIVQTLVHLMNPEYVPKPCCAPTKLRPMSMLYYDDGQNIIKKDIQNMIVEECGCS
B12: designer BMP-GER-NR (ligand)
chain: B11 chain with V33I, P36R, H39A

What was measured:
[1] = biological target: T1, ALK2 receptor-human-IgG1-Fc fusion …; experiment: BLI (Octet), receptor-Fc on anti-human IgG tips; conditions: remark: other sources report otherwise
designer BMPE = biological target: T2, designer BMPE; experiment: cell-based or functional assay
designer BMP-GER = biological target: B9; experiment: cell-based or functional assay
[2] = biological target: B7; experiment: BLI (Octet), receptor-Fc on anti-human IgG tips
Protocol: (§1) The Octet QK analysis was performed at […] in TBS with 0.1% Tween-20. Samples were agitated at 1000 rpm. […] Each BMP was prepared as a sevenfold serial dilution (typically 200-3 nM in singlicate) plus buffer blanks. Each Receptor/BMP binding pair was run at least in duplicate. Association was monitored for 10 min and dissociation was followed for […] into buffer alone. Kinetic parameters (kon and koff) and affinities (KD) were calculated using the Octet Data Analysis software 6.0 using a partial binding 1:1 model following manufacturer's instructions.

[3] = biological target: B7; experiment: BLI (Octet), receptor-Fc on anti-human IgG tips; remark: listed apart in the source
Protocol: as §1

[4] = biological target: T4, wild type BMP2/6 heterodimer (human, UniProt P12643 283-396; P22004 375-513); experiment: BLI (Octet), receptor-Fc on anti-human IgG tips
Protocol: as §1

wild type BMP2 homodimer [5] = biological target: B3; experiment: BLI (Octet), receptor-Fc on anti-human IgG tips
Protocol: as §1

wild type BMP6 homodimer [6] = biological target: T3, wild type BMP6 homodimer; experiment: BLI (Octet), receptor-Fc on anti-human IgG tips
Protocol: as §1

[7] = biological target: T4, wild type BMP2/6 heterodimer; experiment: BLI (Octet), receptor-Fc on anti-human IgG tips; remark: listed apart in the source
Protocol: as §1

wild type BMP2 homodimer [8] = biological target: B3; experiment: BLI (Octet), receptor-Fc on anti-human IgG tips; remark: listed apart in the source
Protocol: as §1

wild type BMP6 homodimer [9] = biological target: T3, wild type BMP6 homodimer; experiment: BLI (Octet), receptor-Fc on anti-human IgG tips; remark: listed apart in the source
Protocol: as §1

[10] = biological target: T5, ActRIIA receptor-human-IgG1-Fc fusion protein (human, UniProt P27037 20-135, limits assumed); experiment: BLI (Octet), receptor-Fc on anti-human IgG tips
T5 construct: extracellular domain; See note of m11; not shown: human IgG1 Fc
T5 sequence (P27037 20-135 limits assumed): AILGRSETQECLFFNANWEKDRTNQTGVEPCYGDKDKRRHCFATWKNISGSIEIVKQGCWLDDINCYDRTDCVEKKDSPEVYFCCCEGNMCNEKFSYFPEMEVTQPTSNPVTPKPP
Protocol: as §1

[11] = biological target: B6; experiment: BLI (Octet), receptor-Fc on anti-human IgG tips
Protocol: as §1

[12] = biological target: B4; experiment: BLI (Octet), receptor-Fc on anti-human IgG tips
Protocol: as §1

[13] = biological target: B8; experiment: BLI (Octet), receptor-Fc on anti-human IgG tips; Table 12, sign printed '<'
Protocol: as §1

[14] = biological target: T5, ActRIIA receptor-human-IgG1-Fc fusion …; experiment: BLI (Octet), receptor-Fc on anti-human IgG tips; remark: listed apart in the source
Protocol: as §1

[15] = biological target: B6; experiment: BLI (Octet), receptor-Fc on anti-human IgG tips; remark: listed apart in the source
Protocol: as §1

[16] = biological target: B4; experiment: BLI (Octet), receptor-Fc on anti-human IgG tips; remark: listed apart in the source
Protocol: as §1

wild type BMP6 homodimer [17] = biological target: T3, wild type BMP6 homodimer; experiment: BLI (Octet), receptor-Fc on anti-human IgG tips; Table 13: weak binding, 700 nM
Protocol: as §1

Noggin = biological target: B2; experiment: Noggin affinity; method and unit not stated
[18] = biological target: B6; experiment: ActRIIb affinity; method not given
[19] = biological target: B10; experiment: BLI (Octet), receptor-Fc on anti-human IgG tips
Protocol: as §1

[20] = biological target: B8; experiment: BLI (Octet), receptor-Fc on anti-human IgG tips
Protocol: as §1

In the case of B1, the Kd [1] is reported as 250 nM.

B2 was tested, and the “IC50 (read off the curve)” value (designer BMPE) was roughly 0.09 µg/mL and the “IC50 (read off the curve)” value (designer BMP-GER) was roughly 0.04 µg/mL.

For B3, the Kd [2] was 62 nM and the Kd [3] was 62 nM.

B4 gave a Kd [4] of 0.5 nM, a Kd (wild type BMP2 homodimer [5]) of 1 nM and a Kd (wild type BMP6 homodimer [6]) of 20 nM. It also gave a Kd [7] of 0.5 nM, a Kd (wild type BMP2 homodimer [8]) of 1 nM and a Kd (wild type BMP6 homodimer [9]) of 20 nM.

Work on B5 yielded a Kd [10] of 2 nM, a Kd [11] of 0.5 nM and a Kd [12] of 1 nM. It also gave a Kd [2] of 4 nM, a Kd [13] greater than 1000 nM and a Kd [14] of 2 nM. It also gave a Kd [15] of 0.5 nM, a Kd [16] of 1 nM and a Kd [3] of 4 nM.

With B6 the Kd [4] was 1 nM, the Kd (wild type BMP6 homodimer [6]) was 0.5 nM and the Kd [7] was 1 nM. It also gave a Kd (wild type BMP6 homodimer [9]) of 0.5 nM.

B7 was tested, and the Kd [4] was 3 nM, the Kd (wild type BMP6 homodimer [6]) was 4 nM and the Kd [7] was 3 nM. The Kd (wild type BMP6 homodimer [9]) was 4 nM.

B8 gave a Kd (wild type BMP6 homodimer [17]) of 700 nM.

B9 was tested, and the “Noggin Affinity” value (Noggin) was 4, the Kd [18] was 2 nM and the Kd [19] was 2 nM. The Kd [14] was 2 nM, the Kd [20] was 2 nM and the Kd [15] was 0.5 nM. It also gave a Kd [16] of 1 nM and a Kd [3] of 3.5 nM.

Work on B10 yielded a Kd (wild type BMP6 homodimer [6]) of 11 nM and a Kd (wild type BMP6 homodimer [9]) of 11 nM.

For B11, the “Noggin Affinity” value (Noggin) was 6 and the Kd [18] was 0.5 nM.

With B12 the “Noggin Affinity” value (Noggin) was 7.5 and the Kd [18] was 0.07 nM.
